Experimental data reported in the supplement of paper PMC7877785.
± gives the uncertainty stated by the source.

Experiment: self-splicing fitness, log relative to wild type (ln ratio); higher = more splicing; Tetrahymena group I intron in knt gene, E. coli kanamycin selection, DiMSum; sequences stand for … in CUCUCU…GGAGGGAAAAGUUAUCAGGCAUGCACCUGGUAGCUAGUCUUUAAACCAAUAGAUUGCAUCGGUUUAAAAGGCAAGACCGUCAAAUUGCGGGAAAGGGGUCAACAGCCGUUCAGUACCAAGUCUCAGGGGAAACUUUGAGAUGGCCUUGCAAAGGGUAUGGUAAUAAGCUGACGGACAUGGUCCUAACCACGCAGCCAAGUCCUAAGUCAACAGAUCUUCUGUUGAUAUGGAUGCAGUUCACAGACUAAAUGUCGGUCGGGGAAGAUGUAUUCUUCUCAUAAGAUAUAGUCGGACCUCUCCUUAAUGGGAGCUAGCGGAUGAAGUGAUGCAACACUGGAGCCGCUGGGAACUAAUUUGUAUGCGAAAGUAUAUUGAUUAGUUUUGGAGUACUCGUGGUCG
In short: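 The eight P1ex-region nucleotides of an intron in the knt kanamycin-resistance gene on pET-22b(+) were all randomised and the library put into E. coli BL21(DE3). Six replicate transformations were grown overnight at 37°C or 30°C on LB agar with or without 25 μg/mL kanamycin, together with 100 μg/mL carbenicillin, 50 μM IPTG and 0.2% rhamnose. Colonies were pooled and amplicon-sequenced on an Illumina HiSeq 2500. Fitness from DiMSum is the error-weighted combination of wild-type-normalised replicate fold changes, kanamycin over none.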

Row | Sequence | self-splicing fitness (ln) (37 °C) | self-splicing fitness (ln) (30 °C)
1 | CUUGAGCAAUAUUACGCCGA | -2.7 ± 0.33 | 
2 | ACGUAGCAAUAUUACGCUCC | -0.259 ± 0.22 | -2.71 ± 0.36
3 | AGCGAGCAAUAUUACGGUCA | -0.626 ± 0.11 | -2.05 ± 0.12
4 | ACCCAGCAAUAUUACGGAUA | -0.448 ± 0.083 | -0.912 ± 0.08
5 | GGGCAGCAAUAUUACGGGGA | -1.56 ± 0.17 | -2.97 ± 0.21
6 | GCCAAGCAAUAUUACGGCUU | -3.31 ± 0.19 | -5.36 ± 0.34
7 | GUGCAGCAAUAUUACGAUGG | -3.15 ± 0.47 | -3.54 ± 0.37
8 | UAUGAGCAAUAUUACGUCGU | -2.93 ± 0.32 | -3.39 ± 0.3
9 | CGCCAGCAAUAUUACGCGUG | -0.717 ± 0.093 | -2.06 ± 0.1
10 | AAGGAGCAAUAUUACGUAAU | -2.27 ± 0.15 | -3.8 ± 0.16
11 | UCCGAGCAAUAUUACGAUAA | -2.41 ± 0.32 | -2 ± 0.22
12 | UUACAGCAAUAUUACGGAAU | -2.7 ± 0.17 | -3.68 ± 0.2
13 | UCGCAGCAAUAUUACGAUAG | -1.26 ± 0.17 | -2.26 ± 0.15
14 | GGGAAGCAAUAUUACGUCAC | -1.77 ± 0.19 | -3.08 ± 0.2
15 | UUUCAGCAAUAUUACGUGCU | -2 ± 0.24 | -3.47 ± 0.32
16 | CUACAGCAAUAUUACGGUUU | -1.31 ± 0.11 | -3.8 ± 0.16
17 | UAUGAGCAAUAUUACGAGGU | -3.62 ± 0.46 | 
18 | CCCCAGCAAUAUUACGGAUG | -1.08 ± 0.067 | -1.96 ± 0.064
19 | UUAGAGCAAUAUUACGUUGA | -0.538 ± 0.12 | -2.03 ± 0.1
20 | ACCGAGCAAUAUUACGCACG | -3.29 ± 0.33 | -3.67 ± 0.31

Row | Sequence | self-splicing fitness (ln) (37 °C) | self-splicing fitness (ln) (30 °C)
21 | UUUCAGCAAUAUUACGACGA | 0.236 ± 0.12 | -0.00347 ± 0.1
22 | AGGCAGCAAUAUUACGUGAU | -0.983 ± 0.13 | -2.2 ± 0.14
23 | GGUAAGCAAUAUUACGGUGA | -0.756 ± 0.13 | -1.45 ± 0.12
24 | UGUUAGCAAUAUUACGUCCU | -0.516 ± 0.23 | -1.31 ± 0.15
25 | ACUGAGCAAUAUUACGCGAG | -1.11 ± 0.096 | -2.27 ± 0.1
26 | CCCGAGCAAUAUUACGUAAA | -2.94 ± 0.2 | -3.27 ± 0.15
27 | CGCGAGCAAUAUUACGUGCA | -0.511 ± 0.095 | -2.08 ± 0.099
28 | ACUGAGCAAUAUUACGAACA | -2.59 ± 0.48 | -3.84 ± 0.47
29 | AGACAGCAAUAUUACGUGCG | -0.653 ± 0.083 | -0.833 ± 0.077
30 | GCAGAGCAAUAUUACGACCG |  | -3.12 ± 0.46
31 | AAGGAGCAAUAUUACGAUCC | 0.127 ± 0.31 | 
32 | UUCUAGCAAUAUUACGUGGU | -0.962 ± 0.18 | -4.03 ± 0.34
33 | CAAAAGCAAUAUUACGUCAA | -2.86 ± 0.12 | -3.34 ± 0.11
34 | CAUGAGCAAUAUUACGUUGG | -1.81 ± 0.15 | -2.69 ± 0.17
35 | GAACAGCAAUAUUACGCAGA | -1.66 ± 0.12 | -2.1 ± 0.14
36 | CCAAAGCAAUAUUACGGACC | -1.51 ± 0.29 | 
37 | AGUUAGCAAUAUUACGCUCG | -0.636 ± 0.19 | -0.0767 ± 0.16
38 | AGACAGCAAUAUUACGCGAG | -0.818 ± 0.094 | -1.22 ± 0.091
39 | ACGAAGCAAUAUUACGAGCU | -0.76 ± 0.11 | -1.56 ± 0.12
